This is an account of results in paper PMC6623464, “HTLV-1 basic leucine zipper factor protects cells from oxidative stress by upregulating expression of Heme Oxygenase I”.

Series [1] has as its target T1, MafG-His (UniProt O15525 1-162). Put plainly: EMSA; EMSA: 0.5x TM (100 mM Tris-HCl pH 7.5, 20 mM MgSO4 as printed), 1 mM DTT, 1 ug BSA, 100 ng poly(dA)-poly(dT), 2-10 fmol probe, 20 C, 1 h; proteins stored in 50. Conditions: protein: recombinant; tags: 6xHis (pRSET A); chain copies: 2; label: 32P end label. For orientation: Mobility shift assays separate free from complexed probe on a gel.

Series [2] concerns the target GST-HBZ-AD (HTLV-1, UniProt P0C746-2 1-57). The series is described as follows: EMSA; HBZ-AD 50 nM, no MafG; EMSA: 0.5x TM (100 mM Tris-HCl pH 7.5, 20 mM MgSO4 as printed), 1 mM DTT, 1 ug BSA, 100 ng poly(dA)-poly(dT), 2-10 fmol probe, 20 C, 1 h; proteins stored in 50. The note with it: protein: recombinant; tags: GST; label: 32P end label.
For series [3], the target named is T2, MafG-His;T7-HBZ-bZIP (human?;HTLV-1, UniProt O15525;P0C746-2 1-162;120-206, |). The series is described as follows: EMSA; increased over MafG alone; MafG 0.5 nM; EMSA: 0.5x TM (100 mM Tris-HCl pH 7.5, 20 mM MgSO4 as printed), 1 mM DTT, 1 ug BSA, 100 ng poly(dA)-poly(dT), 2-10 fmol probe, 20 C, 1 h; proteins stored in 50. Conditions: protein: recombinant;recombinant; tags: 6xHis (pRSET A);T7; copies: 1;1; label: 32P end label.

The target in series [4] is GST-HBZ (HTLV-1, UniProt P0C746-2 1-206). The series is described as follows: EMSA; HBZ 50 nM, no MafG; EMSA: 0.5x TM (100 mM Tris-HCl pH 7.5, 20 mM MgSO4 as printed), 1 mM DTT, 1 ug BSA, 100 ng poly(dA)-poly(dT), 2-10 fmol probe, 20 C, 1 h; proteins stored in 50. The note with it: protein: recombinant; tags: GST; chain copies: 2; label: 32P end label.
Series [5] addresses T1, MafG-His. The series is described as follows: EMSA; MafG 0.5 or 1 nM; EMSA: 0.5x TM (100 mM Tris-HCl pH 7.5, 20 mM MgSO4 as printed), 1 mM DTT, 1 ug BSA, 100 ng poly(dA)-poly(dT), 2-10 fmol probe, 20 C, 1 h; proteins stored in 50. Conditions: protein: recombinant; tags: 6xHis (pRSET A); chain copies: 2; label: 32P end label.
For series [6], the target named is T2, MafG-His;T7-HBZ-bZIP. Put plainly: EMSA; increased over MafG alone; EMSA: 0.5x TM (100 mM Tris-HCl pH 7.5, 20 mM MgSO4 as printed), 1 mM DTT, 1 ug BSA, 100 ng poly(dA)-poly(dT), 2-10 fmol probe, 20 C, 1 h; proteins stored in 50. The note with it: protein: recombinant;recombinant; tags: 6xHis (pRSET A);T7; copies: 1;1; label: 32P end label.
The target in series [7] is T2, MafG-His;T7-HBZ-bZIP. The series is described as follows: EMSA; most pronounced increase over MafG alone; EMSA: 0.5x TM (100 mM Tris-HCl pH 7.5, 20 mM MgSO4 as printed), 1 mM DTT, 1 ug BSA, 100 ng poly(dA)-poly(dT), 2-10 fmol probe, 20 C, 1 h; proteins stored in 50. Conditions: protein: recombinant;recombinant; tags: 6xHis (pRSET A);T7; copies: 1;1; label: 32P end label.

For series [8], the target named is T2, MafG-His;T7-HBZ-bZIP. The series is described as follows: EMSA; HBZ-bZIP diminished the MafG complex; authors conclude heterodimer does not bind; EMSA: 0.5x TM (100 mM Tris-HCl pH 7.5, 20 mM MgSO4 as printed), 1 mM DTT, 1 ug BSA, 100 ng poly(dA)-poly(dT), 2-10 fmol probe, 20 C, 1 h; proteins stored in 50. Conditions: protein: recombinant;recombinant; tags: 6xHis (pRSET A);T7; copies: 1;1; label: 32P end label.

Series [9] deals with T1, MafG-His. Put plainly: EMSA; MafG 0.5 nM; higher apparent affinity than distal MAREs; EMSA: 0.5x TM (100 mM Tris-HCl pH 7.5, 20 mM MgSO4 as printed), 1 mM DTT, 1 ug BSA, 100 ng poly(dA)-poly(dT), 2-10 fmol probe, 20 C, 1 h; proteins stored in 50. The note with it: protein: recombinant; tags: 6xHis (pRSET A); chain copies: 2; label: 32P end label.

GST-HBZ, sequence (P0C746 8-209, tags left off): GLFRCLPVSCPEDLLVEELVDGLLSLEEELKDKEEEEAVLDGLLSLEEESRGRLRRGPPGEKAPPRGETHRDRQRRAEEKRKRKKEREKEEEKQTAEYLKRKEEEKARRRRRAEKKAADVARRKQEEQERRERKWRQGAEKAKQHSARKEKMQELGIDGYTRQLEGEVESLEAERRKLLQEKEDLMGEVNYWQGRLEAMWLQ
GST-HBZ-AD, sequence (P0C746 8-60, tags left off): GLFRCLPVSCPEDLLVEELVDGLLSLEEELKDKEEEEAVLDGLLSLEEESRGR

B1: MARE MT probe (dsDNA)
DNA 1: AGCTCGGAATCAATGACTCATTGTTACTCTCG
DNA 2: CGAGAGTAACAATGAGTCATTGATTCCGAGCT
On to B1, for which, in series [1], the binding result was “no binding”.

B2: T-MARE probe (dsDNA)
DNA 1: AGCTCGGAATTGCTGACTCAGCATTACTCTCG
DNA 2: CGAGAGTAATGCTGAGTCAGCAATTCCGAGCT
Regarding B2, the binding result in series [2] is “no binding”; in [3] it was “binds”; in [4], “no binding”; in series [5], “binds”.

B3: HMOX1 Distal 1 MARE probe (dsDNA)
DNA 1: GTGTTTTTCCTGCTGAGTCACGGTCCCGAGGT
DNA 2: ACCTCGGGACCGTGACTCAGCAGGAAAAACAC
In the case of B3, the binding result in series [6] is “binds”.

B4: HMOX1 Distal 2 MARE probe (dsDNA)
DNA 1: GATCTGTTTTCGCTGAGTCACGGTCCCGGTGT
DNA 2: ACACCGGGACCGTGACTCAGCGAAAACAGATC
As for B4, the binding result in series [6] is on record as “binds”.

B5: HMOX1 Distal 3 MARE probe (dsDNA)
DNA 1: TGTCTGTTTTCGCTGAGTCACGGTCTAGAGAT
DNA 2: ATCTCTAGACCGTGACTCAGCGAAAACAGACA
For B5, the binding result in series [7] is given as “binds”.

B6: HMOX1 proximal MARE probe (dsDNA)
DNA 1: TGCTAGATTTTGCTGAGTCACCAGTGCCTCCT
DNA 2: AGGAGGCACTGGTGACTCAGCAAAATCTAGCA
On to B6, for which the binding result in [8] is “no binding”; in series [9] it was “binds”.
